Experimental data as given in US20250215059A1 (REGENTS OF THE UNIVERSITY OF COLORADO A BODY CORPORATE, published 2025).

What was measured:
[1] = biological target: T1, tau aggregates in HEK293 tau biosensor cells (4R repeat domain of tau (K18) with the P301S mutation fused to … (UniProt P10636-8 244-372)); assay: cell-based or functional assay
[2] = biological target: T1, tau aggregates in HEK293 tau biosensor …; assay: Halo (JF646) imaging in seeded HEK293 tau biosensor cells

T1 sequence (P10636 561-689 P618S): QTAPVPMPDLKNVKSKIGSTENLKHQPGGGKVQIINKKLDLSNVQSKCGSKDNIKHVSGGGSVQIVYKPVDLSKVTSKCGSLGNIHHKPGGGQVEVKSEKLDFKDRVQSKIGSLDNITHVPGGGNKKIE

B1: 42-polyserine-TNPO3-halo (other)
chain: MEGAKPTLQLVYQAVQALYHDPDPSGKERASFWLGELQRSVHAWEISDQLLQIRQDVESCYFAAQTMKMKIQTSFYELPTDSHASLRDSLLTHIQNLKDLSPVIVTQLALAIADLALQMPSWKGCVQTLVEKYSNDVTSLPFLLEILTVLPEEVHSRSLRIGANRRTEIIEDLAFYSSTVVSLLMTCVEKAGTDEKMLMKVFRCLGSWFNLGVLDSNFMANNKLLALLFEVLQQDKTSSNLHEAASDCVCSALYAIENVETNLPLAMQLFQGVLTLETAYHMAVAREDLDKVLNYCRIFTELCETFLEKIVCTPGQGLGDLRTLELLLICAGHPQYEVVEISFNFWYRLGEHLYKTNDEVIHGIFKAYIQRLLHALARHCQLEPDHEGVPEETDDFGEFRMRVSDLVKDLIFLIGSMECFAQLYSTLKEGNPPWEVTEAVLFIMAAIAKSVDPENNPTLVEVLEGVVRLPETVHTAVRYTSIELVGEMSEVVDRNPQFLDPVLGYLMKGLCEKPLASAAAKAIHNICSVCRDHMAQHFNGLLEIARSLDSFLLSPEAAVGLLKGTALVLARLPLDKITECLSELCSVQVMALKKLLSQEPSNGISSDPTVFLDRLAVIFRHTNPIVENGQTHPCQKVIQEIWPVLSETLNKHRADNRIVERCCRCLRFAVRCVGKGSAALLQPLVTQMVNVYHVHQHSCFLYLGSILVDEYGMEEGCRQGLLDMLQALCIPTFQLLEQQNGLQNHPDTVDDLFRLATRFIQRSPVTLLRSQVVIPILQWAIASTTLDHRDANCSVMRFLRDLIHTGVANDHEEDFELRKELIGQVMNQLGQQLVSQLLHTCCFCLPPYTLPDVAEVLWEIMQVDRPTFCRWLENSLKGLPKETTVGAVTVTHKQLTDFHKQVTSAEECKQVCWALRDFTRLFRGTELGSTSPVWWNSADISSSSSSSSSSSSSSSSSSSSSSSSSSSSSSSSSSSSSSSSSSGGSGGSGGGSEIGTGFPFDPHYVEVLGERMHYVDVGPRDGTPVLFLHGNPTSSYVWRNIIPHVAPTHRCIAPDLIGMGKSDKPDLGYFFDDHVRFMDAFIEALGLEEVVLVIHDWGSALGFHWAKRNPERVKGIAFMEFIRPIPTWDEWPEFARETFQAFRTTDVGRKLIIDQNVFIEGTLPMGVVRPLTEVEMDHYREPFLNPVDREPLWRFPNELPIAGEPANIVALVEEYMDWLHQSPVPKLLFWGTPGVLIPPAEAARLAKSLPNCKAVDIGPGLNLLQEDNPDLIGSEIARWLSTLEISG
For B1, the “tau aggregation by flow cytometry (FRET+ cells and integrated FRET density, normalized to no insert Halo)” value [1] was ~50 % decrease.

B2: SRRM2_5-Halo (other)
chain: MYNGIGLPTPRGSGTNGYVQRNLSLVRGRRGERPDYKGEEELRRLEAALVKRPNPDILDHERKRRVELRCLELEEMMEEQGYEEQQIQEKVATFRLMLLEKDVNPGGKEETPGQRPAVTETHQLAELNEKKNERLRAAFGISDSYVDGSSFDPQRRAREAKQPAPEPPKPYSLVRESSSSRSPTPKQKKKKKKKDRGRRSESSSPRRERKKSSKKKKHRSESESKKRKHRSPTPKSKRKSKDKKRKRSRSTTPAPKSRRAHRSTSADSASSSDTSRSRSRSAAAKTHTTALAGRSPSPASGRRGEGDAPFSEPGTTSTQRPSSPETATKQPSSPYEDKDKDKKEKSATRPSPSPERSSTGPEPPAPTPLLAERHGGSPQPLATTPLSQEPVNPPSEASPTRDRSPPKSPEKLPQSSSSESSPPSPQPTKVSRHASSSPESPKPAPAPGSHREISSSPTSKNRSHGRAKRDKSHSHTPSRRMGRSRSPATAKRGRSRSRTPTKRGHSRSRSPQWRRSRSAQRWGRSRSPQRRGRSRSPQRPGWSRSRNTQRRGRSRSARRGRSHSRSPATRGRSRSRTPARRGRSRSRTPARRRSRSRTPTRRRSRSRTPARRGRSRSRTPARRRSRTRSPVRRRSRSRSPARRSGRSRSRTPARRGRSRSRTPARRGRSRSRTPARRSGRSRSRTPARRGRSRSRTPRRGRSRSRSLVRRGRSHSRTPQRRGRSGSSSERKNKSRTSQRRSRSNSSPEMKKSRISSRRSRSLSSPRSKAKSRLSLRRSLSGSSPCPKQKSQTPPRRSRSGSSQPKMAEIGTGFPFDPHYVEVLGERMHYVDVGPRDGTPVLFLHGNPTSSYVWRNIIPHVAPTHRCIAPDLIGMGKSDKPDLGYFFDDHVRFMDAFIEALGLEEVVLVIHDWGSALGFHWAKRNPERVKGIAFMEFIRPIPTWDEWPEFARETFQAFRTTDVGRKLIIDQNVFIEGTLPMGVVRPLTEVEMDHYREPFLNPVDREPLWRFPNELPIAGEPANIVALVEEYMDWLHQSPVPKLLFWGTPGVLIPPAEAARLAKSLPNCKAVDIGPGLNLLQEDNPDLIGSEIARWLSTLEISG
modifications: JF646 Halo ligand covalently bound to the Halo tag
notes: also called truncation 5
B2: no binding [2].

B3: SRRM2_4-Halo (other)
chain: MYNGIGLPTPRGSGTNGYVQRNLSLVRGRRGERPDYKGEEELRRLEAALVKRPNPDILDHERKRRVELRCLELEEMMEEQGYEEQQIQEKVATFRLMLLEKDVNPGGKEETPGQRPAVTETHQLAELNEKKNERLRAAFGISDSYVDGSSFDPQRRAREAKQPAPEPPKPYSLVRESSSSRSPTPKQKKKKKKKDRGRRSESSSPRRERKKSSKKKKHRSESESKKRKHRSPTPKSKRKSKDKKRKRSRSTTPAPKSRRAHRSTSADSASSSDTSRSRSRSAAAKTHTTALAGRSPSPASGRRGEGDAPFSEPGTTSTQRPSSPETATKQPSSPYEDKDKDKKEKSATRPSPSPERSSTGPEPPAPTPLLAERHGGSPQPLATTPLSQEPVNPPSEASPTRDRSPPKSPEKLPQSSSSESSPPSPQPTKVSRHASSSPESPKPAPAPGSHREISSSPTSKNRSHGRAKRDKSHSHTPSRRMGRSRSPATAKRGRSRSRTPTKRGHSRSRSPQWRRSRSAQRWGRSRSPQRRGRSRSPQRPGWSRSRNTQRRGRSRSARRGRSHSRSPATRGRSRSRTPARRGRSRSRTPARRRSRSRTPTRRRSRSRTPARRGRSRSRTPARRRSRTRSPVRRRSRSRSPARRSGRSRSRTPARRGRSRSRTPARRGRSRSRTPARRSGRSRSRTPARRGRSRSRTPRRGRSRSRSLVRRGRSHSRTPQRRGRSGSSSERKNKSRTSQRRSRSNSSPEMKKSRISSRRSRSLSSPRSKAKSRLSLRRSLSGSSPCPKQKSQTPPRRSRSGSSQPKAKSRTPPRRSRSSSSPPPKQKSKTPSRQSHSSSSPHPKVKSGTPPRQGSITSPQANEQSVTPQRRSCFESSPDPELKSRTPSRHSCSGSSPPRVKSSTPPRQSPSRSSSPQPKVKAIISPRQRSHSGSSSPSPSRVTSRTTPRRSRSVSPCSNVESRLLPRYSHSGSSSPDTKVKPETPPRQSHSGSISPYPKVKAQTPPGPSLSGSKSPCPQEKSKDSLVQSCPGSLSLCAGVKSSTPPGESYFGVSSLQLKGQSQTSPDHRSDTSSPEVRQSHSESPSLQSKSQTSPKGGRSRSSSPVTELASRSPIRQDRGEFSASPMLKSGMSPEQSRFQSDSSSYPTVDSNSLLGQSRLETAESKEKMALPPQEDATASPPRQKDKFSPFPVQDRPESSLVFKDTLRTPPRERSGAGSSPETKEQNSALPTSSQDEELMEVVEKSEEPAGQILSHLSSELKEMSTSNFESSPEVEERPAVSLTLDQSQSQASLEAVEVPSMASSWGGPHFSPEHKELSNSPLRENSFGSPLEFRNSGPLGTEMNTGFSSEVKEDLNGPFMAEIGTGFPFDPHYVEVLGERMHYVDVGPRDGTPVLFLHGNPTSSYVWRNIIPHVAPTHRCIAPDLIGMGKSDKPDLGYFFDDHVRFMDAFIEALGLEEVVLVIHDWGSALGFHWAKRNPERVKGIAFMEFIRPIPTWDEWPEFARETFQAFRTTDVGRKLIIDQNVFIEGTLPMGVVRPLTEVEMDHYREPFLNPVDREPLWRFPNELPIAGEPANIVALVEEYMDWLHQSPVPKLLFWGTPGVLIPPAEAARLAKSLPNCKAVDIGPGLNLLQEDNPDLIGSEIARWLSTLEISG
modifications: JF646 Halo ligand covalently bound to the Halo tag
notes: also called truncation 4
B3: no binding [2].

B4: SRRM2_7-Halo (other)
chain: MYNGIGLPTPRGSGTNGYVQRNLSLVRGRRGERPDYKGEEELRRLEAALVKRPNPDILDHERKRRVELRCLELEEMMEEQGYEEQQIQEKVATFRLMLLEKDVNPGGKEETPGQRPAVTETHQLAELNEKKNERLRAAFGISDSYVDGSSFDPQRRAREAKQPAPEPPKPYSLVRESSSSRSPTPKQKKKKKKKDRGRRSESSSPRRERKKSSKKKKHRSESESKKRKHRSPTPKSKRKSKDKKRKRSRSTTPAPKSRRAHRSTSADSASSSDTSRSRSRSAAAKTHTTALAGRSPSPASGRRGEGDAPFSEPGTTSTQRPSSPETATKQPSSPYEDKDKDKKEKSATRPSPSPERSSTGPEPPAPTPLLAERHGGSPQPLATTPLSQEPVNPPSEASPTRDRSPPKSPEKLPQSSSSESSPPSPQPTKVMAEIGTGFPFDPHYVEVLGERMHYVDVGPRDGTPVLFLHGNPTSSYVWRNIIPHVAPTHRCIAPDLIGMGKSDKPDLGYFFDDHVRFMDAFIEALGLEEVVLVIHDWGSALGFHWAKRNPERVKGIAFMEFIRPIPTWDEWPEFARETFQAFRTTDVGRKLIIDQNVFIEGTLPMGVVRPLTEVEMDHYREPFLNPVDREPLWRFPNELPIAGEPANIVALVEEYMDWLHQSPVPKLLFWGTPGVLIPPAEAARLAKSLPNCKAVDIGPGLNLLQEDNPDLIGSEIARWLSTLEISG
modifications: JF646 Halo ligand covalently bound to the Halo tag
notes: also called truncation 7
B4: no binding [2].

B5: SRRM2_6-Halo (other)
chain: MYNGIGLPTPRGSGTNGYVQRNLSLVRGRRGERPDYKGEEELRRLEAALVKRPNPDILDHERKRRVELRCLELEEMMEEQGYEEQQIQEKVATFRLMLLEKDVNPGGKEETPGQRPAVTETHQLAELNEKKNERLRAAFGISDSYVDGSSFDPQRRAREAKQPAPEPPKPYSLVRESSSSRSPTPKQKKKKKKKDRGRRSESSSPRRERKKSSKKKKHRSESESKKRKHRSPTPKSKRKSKDKKRKRSRSTTPAPKSRRAHRSTSADSASSSDTSRSRSRSAAAKTHTTALAGRSPSPASGRRGEGDAPFSEPGTTSTQRPSSPETATKQPSSPYEDKDKDKKEKSATRPSPSPERSSTGPEPPAPTPLLAERHGGSPQPLATTPLSQEPVNPPSEASPTRDRSPPKSPEKLPQSSSSESSPPSPQPTKVSRHASSSPESPKPAPAPGSHREISSSPTSKNRSHGRAKRDKSHSHTPSRRMGRSRSPATAKRGRSRSRTPTKRGHSRSRSPQWRRSRSAQRWGRSRSPQRRGRSRSPQRPGWSRSRNTQRRGRSRSARMAEIGTGFPFDPHYVEVLGERMHYVDVGPRDGTPVLFLHGNPTSSYVWRNIIPHVAPTHRCIAPDLIGMGKSDKPDLGYFFDDHVRFMDAFIEALGLEEVVLVIHDWGSALGFHWAKRNPERVKGIAFMEFIRPIPTWDEWPEFARETFQAFRTTDVGRKLIIDQNVFIEGTLPMGVVRPLTEVEMDHYREPFLNPVDREPLWRFPNELPIAGEPANIVALVEEYMDWLHQSPVPKLLFWGTPGVLIPPAEAARLAKSLPNCKAVDIGPGLNLLQEDNPDLIGSEIARWLSTLEISG
modifications: JF646 Halo ligand covalently bound to the Halo tag
notes: also called truncation 6
B5: no binding [2].
